The results in this text go back to patent publication US20260008815A1, “CYCLIC PEPTIDE OR SALT THEREOF, AND USES THEREOF” (FUJIFILM Corporation, priority 2023, published 2026).

Bridge positions count the residues as written; N and C are the ends. Ends that are not written are not given here. COCH2 = acetyl group that carries the bridge A value given as a limit tells only on which side of the number the result lay.

To fix the notation:
B1: cyclic peptide SEQ ID NO: 164 (peptide)
peptide: YCRENYLDPEQYQYFIYFK(COCH2)Y
modifications: thioether 2-19
B2: cyclic peptide SEQ ID NO: 186 (peptide)
peptide: YCEENLLDPEQYQYFIYFK(COCH2)Y
modifications: thioether 2-19 (inferred)
B3: cyclic peptide SEQ ID NO: 198 (peptide)
peptide: YCEENYYDPEQYQYFIYFK(COCH2)Y
modifications: thioether 2-19 (inferred)
B4: cyclic peptide SEQ ID NO: 176 (peptide)
peptide: YCESNYLDPEQYQYFIYFK(COCH2)Y
modifications: thioether 2-19 (inferred)
B5: cyclic peptide SEQ ID NO: 174 (peptide)
peptide: YCENNYLDPEQYQYFIYFK(COCH2)Y
modifications: thioether 2-19 (inferred)
B6: cyclic peptide SEQ ID NO: 168 (peptide)
peptide: YCELNYLDPEQYQYFIYFK(COCH2)Y
modifications: thioether 2-19
B7: cyclic peptide SEQ ID NO: 170 (peptide)
peptide: YCEVNYLDPEQYQYFIYFK(COCH2)Y
modifications: thioether 2-19
B8: cyclic peptide SEQ ID NO: 167 (peptide)
peptide: YCEPNYLDPEQYQYFIYFK(COCH2)Y
modifications: thioether 2-19
B9: cyclic peptide SEQ ID NO: 177 (peptide)
peptide: YCETNYLDPEQYQYFIYFK(COCH2)Y
modifications: thioether 2-19 (inferred)
B10: cyclic peptide SEQ ID NO: 172 (peptide)
peptide: YCEYNYLDPEQYQYFIYFK(COCH2)Y
modifications: thioether 2-19 (inferred)
B11: cyclic peptide SEQ ID NO: 201 (peptide)
peptide: YCEENYQDPEQYQYFIYFK(COCH2)Y
modifications: thioether 2-19 (inferred)
B12: cyclic peptide SEQ ID NO: 196 (peptide)
peptide: YCEENYVDPEQYQYFIYFK(COCH2)Y
modifications: thioether 2-19 (inferred)
B13: cyclic peptide SEQ ID NO: 203 (peptide)
peptide: YCEENYTDPEQYQYFIYFK(COCH2)Y
modifications: thioether 2-19 (inferred)
B14: cyclic peptide SEQ ID NO: 184 (peptide)
peptide: YCEESYLDPEQYQYFIYFK(COCH2)Y
modifications: thioether 2-19 (inferred)
B15: cyclic peptide SEQ ID NO: 199 (peptide)
peptide: YCEENYWDPEQYQYFIYFK(COCH2)Y
modifications: thioether 2-19 (inferred)
B16: cyclic peptide SEQ ID NO: 192 (peptide)
peptide: YCEENDLDPEQYQYFIYFK(COCH2)Y
modifications: thioether 2-19 (inferred)
B17: cyclic peptide SEQ ID NO: 200 (peptide)
peptide: YCEENYNDPEQYQYFIYFK(COCH2)Y
modifications: thioether 2-19 (inferred)
B18: cyclic peptide SEQ ID NO: 169 (peptide)
peptide: YCEINYLDPEQYQYFIYFK(COCH2)Y
modifications: thioether 2-19
B19: cyclic peptide SEQ ID NO: 182 (peptide)
peptide: YCEEWYLDPEQYQYFIYFK(COCH2)Y
modifications: thioether 2-19 (inferred)
B20: cyclic peptide SEQ ID NO: 180 (peptide)
peptide: YCEHNYLDPEQYQYFIYFK(COCH2)Y
modifications: thioether 2-19 (inferred)
B21: cyclic peptide SEQ ID NO: 197 (peptide)
peptide: YCEENYFDPEQYQYFIYFK(COCH2)Y
modifications: thioether 2-19 (inferred)
B22: cyclic peptide SEQ ID NO: 173 (peptide)
peptide: YCEWNYLDPEQYQYFIYFK(COCH2)Y
modifications: thioether 2-19 (inferred)
B23: cyclic peptide SEQ ID NO: 171 (peptide)
peptide: YCEFNYLDPEQYQYFIYFK(COCH2)Y
modifications: thioether 2-19 (inferred)
B24: cyclic peptide SEQ ID NO: 191 (peptide)
peptide: YCEENSLDPEQYQYFIYFK(COCH2)Y
modifications: thioether 2-19 (inferred)
B25: cyclic peptide SEQ ID NO: 194 (peptide)
peptide: YCEENHLDPEQYQYFIYFK(COCH2)Y
modifications: thioether 2-19 (inferred)
B26: cyclic peptide SEQ ID NO: 183 (peptide)
peptide: YCEEQYLDPEQYQYFIYFK(COCH2)Y
modifications: thioether 2-19 (inferred)
B27: cyclic peptide SEQ ID NO: 188 (peptide)
peptide: YCEENWLDPEQYQYFIYFK(COCH2)Y
modifications: thioether 2-19 (inferred)
B28: cyclic peptide SEQ ID NO: 165 (peptide)
peptide: YCHENYLDPEQYQYFIYFK(COCH2)Y
modifications: thioether 2-19
B29: cyclic peptide SEQ ID NO: 181 (peptide)
peptide: YCEEGYLDPEQYQYFIYFK(COCH2)Y
modifications: thioether 2-19 (inferred)
B30: cyclic peptide SEQ ID NO: 166 (peptide)
peptide: YCEGNYLDPEQYQYFIYFK(COCH2)Y
modifications: thioether 2-19
B31: cyclic peptide SEQ ID NO: 189 (peptide)
peptide: YCEENNLDPEQYQYFIYFK(COCH2)Y
modifications: thioether 2-19 (inferred)
B32: cyclic peptide SEQ ID NO: 190 (peptide)
peptide: YCEENQLDPEQYQYFIYFK(COCH2)Y
modifications: thioether 2-19 (inferred)
B33: cyclic peptide SEQ ID NO: 193 (peptide)
peptide: YCEENRLDPEQYQYFIYFK(COCH2)Y
modifications: thioether 2-19 (inferred)
B34: cyclic peptide SEQ ID NO: 195 (peptide)
peptide: YCEENYIDPEQYQYFIYFK(COCH2)Y
modifications: thioether 2-19 (inferred)
B35: cyclic peptide SEQ ID NO: 185 (peptide)
peptide: YCEETYLDPEQYQYFIYFK(COCH2)Y
modifications: thioether 2-19 (inferred)
B36: cyclic peptide SEQ ID NO: 179 (peptide)
peptide: YCERNYLDPEQYQYFIYFK(COCH2)Y
modifications: thioether 2-19 (inferred)
B37: cyclic peptide SEQ ID NO: 187 (peptide)
peptide: YCEENFLDPEQYQYFIYFK(COCH2)Y
modifications: thioether 2-19 (inferred)
B38: cyclic peptide SEQ ID NO: 175 (peptide)
peptide: YCEQNYLDPEQYQYFIYFK(COCH2)Y
modifications: thioether 2-19 (inferred)
B39: cyclic peptide SEQ ID NO: 202 (peptide)
peptide: YCEENYSDPEQYQYFIYFK(COCH2)Y
modifications: thioether 2-19 (inferred)
B40: cyclic peptide SEQ ID NO: 178 (peptide)
peptide: YCEDNYLDPEQYQYFIYFK(COCH2)Y
modifications: thioether 2-19 (inferred)

This test deals with T1, Recombinant Human FGFR2 alpha (IIIc) Fc Chimera Protein, CF (R&D systems, 712-FR-050) (human, UniProt P21802 22-377).
T1 construct: bought; not shown: Fc part of the chimera
T1 sequence (P21802 22-377, change not shown): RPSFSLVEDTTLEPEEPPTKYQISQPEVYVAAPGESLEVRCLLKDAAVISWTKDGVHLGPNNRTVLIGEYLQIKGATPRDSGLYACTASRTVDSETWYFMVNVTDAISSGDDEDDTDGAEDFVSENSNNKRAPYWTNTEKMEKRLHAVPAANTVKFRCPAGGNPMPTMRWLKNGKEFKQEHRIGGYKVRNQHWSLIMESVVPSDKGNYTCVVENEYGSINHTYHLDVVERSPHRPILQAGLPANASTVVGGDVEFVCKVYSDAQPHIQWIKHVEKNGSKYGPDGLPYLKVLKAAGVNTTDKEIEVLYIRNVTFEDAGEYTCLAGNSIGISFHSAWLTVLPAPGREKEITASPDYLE
The test is described as follows: ELISA on plate-bound FGFR2-Fc. Here is the method: First, 5 ng of Recombinant Human FGFR2 alpha (IIIc) Fc Chimera Protein (R&D systems, 712-FR-050) was immobilized in each well of a 96-well plate, and blocked with Pierce Protein-Free (PBS) Blocking Buffer (Thermo, 37572), and a peptide diluted with Can Get Signal Immunoreaction Enhancer Solution I (TOYOBO, NKB-101) was then added and reacted at room temperature for 3 hours. After washing with 0.05% Tween 20-containing phosphate buffered saline (PBS), an anti-Myc antibody (Cell Signaling, 14038S) diluted with Can Get Signal Immunoreaction Enhancer Solution II (TOYOBO, NKB-101) was added and reacted at room temperature for 2 hours. After washing with 0.05% Tween 20-containing PBS, SuperSignal ELISA Femto Substrate (Thermo, 37075) was added, and the luminescence amount was measured. The dose-response relationship was calculated from using the difference between the luminescence amount in the well in which FGFR was immobilized and the luminescence amount in the well in which FGFR was not immobilized, and the concentration of the peptide at the time of reaction, and the binding affinity to FGFR was evaluated according to the following evaluation criteria. The evaluation result preferably satisfies the evaluation criteria A, B, or C.
For B1, the “ELISA luminescence signal at 10 nmol/L peptide, relative to SEQ ID NO: 47 (=1)” value is no less than 0.7 ratio.

As for B2, the “ELISA luminescence signal at 10 nmol/L peptide, relative to SEQ ID NO: 47 (=1)” value lay within 0.1 to 0.5 ratio.

For the molecule B3, the “ELISA luminescence signal at 10 nmol/L peptide, relative to SEQ ID NO: 47 (=1)” value was no less than 0.7 ratio.

As for B4, the “ELISA luminescence signal at 10 nmol/L peptide, relative to SEQ ID NO: 47 (=1)” value is no less than 0.7 ratio.

For the molecule B5, the “ELISA luminescence signal at 10 nmol/L peptide, relative to SEQ ID NO: 47 (=1)” value was no less than 0.7 ratio.

For the molecule B6, the “ELISA luminescence signal at 10 nmol/L peptide, relative to SEQ ID NO: 47 (=1)” value was no less than 0.7 ratio.

Take B7: the “ELISA luminescence signal at 10 nmol/L peptide, relative to SEQ ID NO: 47 (=1)” value is no less than 0.7 ratio.

As to B8, the “ELISA luminescence signal at 10 nmol/L peptide, relative to SEQ ID NO: 47 (=1)” value was no less than 0.7 ratio.

For B9, the “ELISA luminescence signal at 10 nmol/L peptide, relative to SEQ ID NO: 47 (=1)” value was no less than 0.7 ratio.

Regarding B10, the “ELISA luminescence signal at 10 nmol/L peptide, relative to SEQ ID NO: 47 (=1)” value is no less than 0.7 ratio.

For the molecule B11, the “ELISA luminescence signal at 10 nmol/L peptide, relative to SEQ ID NO: 47 (=1)” value is no less than 0.7 ratio.

Regarding B12, the “ELISA luminescence signal at 10 nmol/L peptide, relative to SEQ ID NO: 47 (=1)” value was no less than 0.7 ratio.

B13: the “ELISA luminescence signal at 10 nmol/L peptide, relative to SEQ ID NO: 47 (=1)” value is no less than 0.7 ratio.

With B14, the “ELISA luminescence signal at 10 nmol/L peptide, relative to SEQ ID NO: 47 (=1)” value fell in the range of 0.1 to 0.5 ratio.

With B15, the “ELISA luminescence signal at 10 nmol/L peptide, relative to SEQ ID NO: 47 (=1)” value was no less than 0.7 ratio.

B16: the “ELISA luminescence signal at 10 nmol/L peptide, relative to SEQ ID NO: 47 (=1)” value lay in the range of 0.1 to 0.5 ratio.

On to B17, for which the “ELISA luminescence signal at 10 nmol/L peptide, relative to SEQ ID NO: 47 (=1)” value is 0.1 to 0.5 ratio.

Regarding B18, the “ELISA luminescence signal at 10 nmol/L peptide, relative to SEQ ID NO: 47 (=1)” value was no less than 0.7 ratio.

With B19, the “ELISA luminescence signal at 10 nmol/L peptide, relative to SEQ ID NO: 47 (=1)” value fell in the range of 0.1 to 0.5 ratio.

For the molecule B20, the “ELISA luminescence signal at 10 nmol/L peptide, relative to SEQ ID NO: 47 (=1)” value was no less than 0.7 ratio.

For the molecule B21, the “ELISA luminescence signal at 10 nmol/L peptide, relative to SEQ ID NO: 47 (=1)” value was no less than 0.7 ratio.

With B22, the “ELISA luminescence signal at 10 nmol/L peptide, relative to SEQ ID NO: 47 (=1)” value is no less than 0.7 ratio.

B23: the “ELISA luminescence signal at 10 nmol/L peptide, relative to SEQ ID NO: 47 (=1)” value lay within 0.5 to 0.7 ratio.

Regarding B24, the “ELISA luminescence signal at 10 nmol/L peptide, relative to SEQ ID NO: 47 (=1)” value was 0.1 to 0.5 ratio.

On to B25, for which the “ELISA luminescence signal at 10 nmol/L peptide, relative to SEQ ID NO: 47 (=1)” value was no less than 0.7 ratio.

On to B26, for which the “ELISA luminescence signal at 10 nmol/L peptide, relative to SEQ ID NO: 47 (=1)” value was 0.1 to 0.5 ratio.

B27: the “ELISA luminescence signal at 10 nmol/L peptide, relative to SEQ ID NO: 47 (=1)” value is no less than 0.7 ratio.

Consider B28, for which the “ELISA luminescence signal at 10 nmol/L peptide, relative to SEQ ID NO: 47 (=1)” value was no less than 0.7 ratio.

Take B29: the “ELISA luminescence signal at 10 nmol/L peptide, relative to SEQ ID NO: 47 (=1)” value lay in the range of 0.5 to 0.7 ratio.

B30: the “ELISA luminescence signal at 10 nmol/L peptide, relative to SEQ ID NO: 47 (=1)” value was no less than 0.7 ratio.

Take B31: the “ELISA luminescence signal at 10 nmol/L peptide, relative to SEQ ID NO: 47 (=1)” value lay in the range of 0.5 to 0.7 ratio.

For the molecule B32, the “ELISA luminescence signal at 10 nmol/L peptide, relative to SEQ ID NO: 47 (=1)” value was 0.1 to 0.5 ratio.

As to B33, the “ELISA luminescence signal at 10 nmol/L peptide, relative to SEQ ID NO: 47 (=1)” value is 0.1 to 0.5 ratio.

On to B34, for which the “ELISA luminescence signal at 10 nmol/L peptide, relative to SEQ ID NO: 47 (=1)” value was no less than 0.7 ratio.

Consider B35, for which the “ELISA luminescence signal at 10 nmol/L peptide, relative to SEQ ID NO: 47 (=1)” value was 0.1 to 0.5 ratio.

Take B36: the “ELISA luminescence signal at 10 nmol/L peptide, relative to SEQ ID NO: 47 (=1)” value is no less than 0.7 ratio.

On to B37, for which the “ELISA luminescence signal at 10 nmol/L peptide, relative to SEQ ID NO: 47 (=1)” value was no less than 0.7 ratio.

Turning to B38, the “ELISA luminescence signal at 10 nmol/L peptide, relative to SEQ ID NO: 47 (=1)” value was no less than 0.7 ratio.

B39: the “ELISA luminescence signal at 10 nmol/L peptide, relative to SEQ ID NO: 47 (=1)” value was 0.5 to 0.7 ratio.

With B40, the “ELISA luminescence signal at 10 nmol/L peptide, relative to SEQ ID NO: 47 (=1)” value was no less than 0.7 ratio.
